From publication PMC11764377

Tests used:
[1] = target: Allochromatium tepidum LH1 α1β1 heterodimer subunit (of the Ca2+-bound LH1-α1β1 complex) (Allochromatium tepidum); test: cryo-EM structure; LH1-only complex co-expressed in Rsp. rubrum H2 and purified in β-DDM, ~5 mg/mL; C14 symmetry applied; closed ring of 14 αβ-heterodimers
[2] = target: Allochromatium tepidum LH1 α2β1 heterodimer subunit (of the Ca2+-free LH1-α2β1 complex) (Allochromatium tepidum); test: as above

Row | stoichiometry N [1] | stoichiometry N [2] | Substance
1 | 14 |  | Allochromatium tepidum LH1 α1β1 heterodimer subunit (of the Ca2+-bound LH1-α1β1 complex)
2 |  | 14 | Allochromatium tepidum LH1 α2β1 heterodimer subunit (of the Ca2+-free LH1-α2β1 complex)
